{"source": "paper PMC10801496", "key": {"[1]": {"biological_target": "human CD47 with His tag (human) (UniProt Q08722)", "sequence (Q08722 19-323)": "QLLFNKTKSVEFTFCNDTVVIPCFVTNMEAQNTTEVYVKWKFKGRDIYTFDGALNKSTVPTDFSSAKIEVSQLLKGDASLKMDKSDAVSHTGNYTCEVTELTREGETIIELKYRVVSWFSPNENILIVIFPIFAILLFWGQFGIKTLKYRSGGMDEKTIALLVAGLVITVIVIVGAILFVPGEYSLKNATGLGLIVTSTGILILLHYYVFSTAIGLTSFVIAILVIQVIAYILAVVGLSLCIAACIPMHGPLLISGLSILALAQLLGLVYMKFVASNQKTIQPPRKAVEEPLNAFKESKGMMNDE", "test": "ELISA; competition with SIRPa-Fc"}, "CD47 (Homo sapiens)": {"biological_target": "CD47 (Homo sapiens) (UniProt Q08722)", "sequence (Q08722 19-323)": "as above", "conditions": "cited from earlier work"}}, "note": "pIC50, pKd: −log10 of the molar value."}
{"substance": "B6H12.2", "values": [{"measurement": "pIC50", "setting": "[1]", "value": 6.63}]}
{"substance": "SIRPα (from UniProt P97797)", "values": [{"measurement": "pKd", "setting": "CD47 (Homo sapiens)", "value": 6.52}]}
